The supplement of paper PMC12042874
± gives the uncertainty stated by the source.

Test: amyloid nucleation score (Sup35N fusion, yeast selection) (log enrichment); library NNK2; higher = more nucleation; inactive = no reads after selection
In short: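 The nucleation score is a DiMSum log enrichment of output over input reads, centred on the mode score of non-aggregating sequences. Sequences under 100 input reads were excluded, and reads came from Illumina sequencing of plasmid inserts. Psi-negative yeast expressing Sup35N fused to peptides of 20 random codons were induced with 100 μM copper sulfate for 24 hours and grown 7 days at 30°C on medium lacking adenine and uracil. Random libraries had three technical output replicates.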

Substance | amyloid nucleation score
WRCGVVFRDEYCYRGNRTFK | -0.675 ± 0.26
WRCSSISCDCDARLGRMRVS | 0.697 ± 0.42
WRHSVVMYNWKIGHCVGDYW | 0.718 ± 0.18
WRVATCCAGRTIIQLETRFG | 8.805 ± 0.058
WRYYAGWYESWSTAGQTCTF | -0.487 ± 1.1
WSCCKFLDCHITVCDFLVWA | 7.587 ± 0.047
WSQRMLRSQEVPCSWWEIVT | 0.905 ± 0.13
WSRQHDSLMVLWGCRGYY | 0.148 ± 0.5
WSRSLKDGALESYSSVRLLC | 0.1 ± 0.28
WSRTVYGIFCKIG | 0.208 ± 0.65
WSTSFYLLIFTPRVCCMDFF | 5.619 ± 0.034
WSVGVESSKDQSLDQFGSD | -0.184 ± 1.1
WSWLRICIS | 0.549 ± 0.32
WSWLSFYLSGMAFLVRYKSG | -0.344 ± 0.56
WSWSLGNYYAHNVDCYSVGC | -0.266 ± 0.41
WTTIEFRIKGNFM | 1.59 ± 0.19
WTWEKWESPHEDGSRRPIVG | 1.55 ± 0.18
WTWFESVLRPCKGLGRAPHI | -0.172 ± 0.8
WTYRCPALLFYQFYAKGYA | -0.594 ± 0.63
WVAFANFVHGLMTLGHWGSR | 1.28 ± 0.27
WVELVCPYSTYLLSFIASLS | 0.278 ± 0.54
WVFGLCSIPLHCVLHGIMMG | 2.92 ± 0.16
WVFNNELCNDYEHWLWARFD | -0.295 ± 0.56

Substance | amyloid nucleation score
WVGGYIQLFYVTRPQVSGRP | 3.17 ± 0.061
WVLYGASLCYPWVTSSKLRA | 0.589 ± 0.42
WVMAISLADFVLYLNWSLYR | inactive
WVMAVVDHVLSWFYWRLCLF | 3.26 ± 0.058
WVTSDRYKRALARKSHEQRN | 0.423 ± 0.24
WVYFHSNNSDLLDNEIKLTR | 0.652 ± 0.66
WVYNLALCNSRVIKG | -0.51 ± 0.48
WWLKALPRVILARLVSRGQG | 0.458 ± 0.29
WWTAQGCTELTVS | 0.855 ± 0.27
WYISARPYVFCYDMQRSLRL | -0.505 ± 1.1
WYMLLRESPGSCPVGDEQGR | 0.923 ± 0.81
WYRLLGFAMD | -0.603 ± 1.1
WYSSSIGHKMWVTYGSLWGQ | 0.505 ± 0.54
WYVYSQ | 3.25 ± 0.052
YACFDCIIIQAWKFSIGTGL | 3.7 ± 0.051
YAESSNDARSSFISKVSAFI | inactive
YAFIILISCFLTDDSTIGVY | -0.24 ± 0.55
YAIKMGFASQVSVEFRWLYK | -0.244 ± 0.28
YAKNYSILQACQLDHWEFGV | 4.04 ± 0.056
YARTKDYVLVCLQGICAGVN | -0.14 ± 1
YAVENTLYHVRVVTLQSISW | 0.153 ± 0.79
YCDIKIEDLNLGGETGSDRR | inactive
YCDVWGRRCCDANYMERTAS | 1.35 ± 0.38

Substance | amyloid nucleation score
YCNFDRIVYWPLGAAALPFR | 0.065 ± 1.1
YCVSNWASNFSLLLYNGNMY | inactive
YDYEEFRSVLKWIAGRIYVD | -1.27 ± 0.48
YDYYLMVISFRFVNFYNGVG | inactive
YEFCSTRQRSELGGK | 5.24 ± 0.069
YEHRNGLWSMKKRLIG | 0.253 ± 0.31
YEHVIGVWYLGCQGGWVGDH | 0.354 ± 0.29
YEISSLRSFRSVLNWYMSGS | 4.6 ± 0.052
YERVRRSVYSSMFFSLFNTR | -0.357 ± 1.1
YESGVSCFFVYVMNTYHIWG | 5.17 ± 0.097
YFDSDRS | -0.502 ± 0.76
YFEPSSPGVIV | inactive
YFFTLKV | 0.497 ± 0.46
YFGMISERFRFPVYFQNSPR | -1.14 ± 1.1
YFGVEKDEFPPLLGMHMF | -1.59 ± 0.75
YFIGGGLRVMSRWWMCALMD | 3.24 ± 0.086
YFILKFVQTGGNS | 4.12 ± 0.041
YFILVLVESLHPSGVPAFWC | -0.103 ± 0.65
YFISDEIVQSNIFSLIGWFC | 8.556 ± 0.042
YFLLVVCGWHGFIIESLLRF | inactive
YFNGL | inactive
